Source: US20240393333A1

Assays:
[1] = target: human intestinal alkaline phosphatase (human) (UniProt P09923); test: immunoblot, serial dilution of human small intestinal lysate; 0.938 µg lysate loaded
[2] = target: human intestinal alkaline phosphatase (human) (UniProt P09923); test: immunoblot, serial dilution of human small intestinal lysate; 0.469 µg lysate loaded
[3] = target: human intestinal alkaline phosphatase (human) (UniProt P09923); test: immunoblot, serial dilution of human small intestinal lysate; 0.059 µg lysate loaded
[4] = target: human intestinal alkaline phosphatase (human) (UniProt P09923); test: immunoblot, serial dilution of human small intestinal lysate; 7.5 µg lysate loaded
[5] = target: human intestinal alkaline phosphatase (human) (UniProt P09923); test: immunoblot, serial dilution of human small intestinal lysate; 0.117 µg lysate loaded
[6] = target: human intestinal alkaline phosphatase (human) (UniProt P09923); test: immunoblot, serial dilution of human small intestinal lysate; 3.75 µg lysate loaded
[7] = target: human intestinal alkaline phosphatase (human) (UniProt P09923); test: immunoblot, serial dilution of human small intestinal lysate; 0.234 µg lysate loaded
[8] = target: human intestinal alkaline phosphatase (human) (UniProt P09923); test: immunoblot, serial dilution of human small intestinal lysate; 0.029 µg lysate loaded
[9] = target: human intestinal alkaline phosphatase (human) (UniProt P09923); test: immunoblot, serial dilution of human small intestinal lysate; 1.875 µg lysate loaded
[10] = target: human intestinal alkaline phosphatase (human) (UniProt P09923); test: immunoblot, serial dilution of human small intestinal lysate; 0.015 µg lysate loaded

Chain of UniProt P09923 (P09923 20-503 limits assumed): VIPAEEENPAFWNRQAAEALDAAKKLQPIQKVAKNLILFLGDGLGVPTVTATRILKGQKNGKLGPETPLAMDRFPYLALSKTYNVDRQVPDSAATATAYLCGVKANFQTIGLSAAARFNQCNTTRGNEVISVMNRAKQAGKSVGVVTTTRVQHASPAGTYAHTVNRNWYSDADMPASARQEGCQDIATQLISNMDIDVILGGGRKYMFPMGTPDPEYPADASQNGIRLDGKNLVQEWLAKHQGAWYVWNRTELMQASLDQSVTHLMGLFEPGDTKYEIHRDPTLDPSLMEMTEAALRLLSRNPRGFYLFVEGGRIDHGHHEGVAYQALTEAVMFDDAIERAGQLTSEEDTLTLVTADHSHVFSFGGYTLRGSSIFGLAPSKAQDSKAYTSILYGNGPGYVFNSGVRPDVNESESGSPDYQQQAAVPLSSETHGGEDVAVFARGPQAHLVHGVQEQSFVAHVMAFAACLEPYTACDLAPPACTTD

## primary rabbit polyclonal antibodies against human iAP (Abcam, ab7322) (antibody)
[1]
  mean relative fluorescence units for the total iAP (relative fluorescence units): 143000
[2]
  mean relative fluorescence units for the total iAP (relative fluorescence units): 75700
[3]
  mean relative fluorescence units for the total iAP (relative fluorescence units): 4920
[4]
  mean relative fluorescence units for the total iAP (relative fluorescence units): 217000
[5]
  mean relative fluorescence units for the total iAP (relative fluorescence units): 18200
[6]
  mean relative fluorescence units for the total iAP (relative fluorescence units): 234000
[7]
  mean relative fluorescence units for the total iAP (relative fluorescence units): 44100
[8]
  mean relative fluorescence units for the total iAP (relative fluorescence units): 1160
[9]
  mean relative fluorescence units for the total iAP (relative fluorescence units): 211000
[10]
  mean relative fluorescence units for the total iAP (relative fluorescence units): 227
